This is an account of results in patent US20190015361A1 (published 2019).

In assay [1] the target is T1, Aβ42 (t=24 days) (human, UniProt P05067 672-713).
T1 construct: domain: Aβ42 (residues 1-42 of the Aβ peptide); enriched in high-MW oligomers by CE; also called Aβ42 high-MW oligomers
Kind of assay: SPRi, Aβ spotted on chip at 20 µM, LL-37 injected 1-100 µM, nonlinear fit of response at equilibrium.

The target of assay [2] is T2, Aβ40 (t=0 days) (UniProt P05067 672-711).
T2 construct: domain: Aβ40; Dissolved in PBS and spotted at 20 µM on the SPRi chip immediately after solubilization; mainly low-MW oligomers by CE; also called Aβ40 low-MW oligomers; Aβ40 solubilized in PBS
T2 sequence (P05067 672-711 limits assumed): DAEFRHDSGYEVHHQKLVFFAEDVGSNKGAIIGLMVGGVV
Put plainly: SPRi, Aβ forms spotted on chip, ovalbumin injected.

For assay [3], the target named is T3, Aβ42 (t=0 days) (human, UniProt P05067 672-713).
T3 construct: domain: Aβ42 (residues 1-42 of the Aβ peptide); HFIP / CH3CN-Na2CO3-NaOH preparation, diluted to 20 µM in phosphate buffer and spotted on the SPRi chip immediately; mainly low-MW oligomers by CE; also called Aβ42 low-MW oligomers
T3 sequence (P05067 672-713 limits assumed): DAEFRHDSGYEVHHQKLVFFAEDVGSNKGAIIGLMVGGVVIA
Kind of assay: SPRi, Aβ forms spotted on chip, ovalbumin injected.

The target in assay [4] is T1, Aβ42 (t=24 days). Put plainly: SPRi, Aβ forms spotted on chip, ovalbumin injected.

T1 sequence (P05067 672-713 limits assumed): as above

B1: human cathelicidin peptide LL-37 (peptide, UniProt P49913 134-170, looked up)
peptide: LLGDFFRKSKEKIGKEFKRIVQRIKDFLRNLVPRTES
notes: range 134-170; Synthetic peptide; from Innovagen for SPRi/TEM/CD, from AnaSpec for the cell culture work; also called cathelicidin LL-37
B1: in assay [1], the Ka was 49200 M⁻¹ and the Kd worked out at 20.3 µM.

B2: Ovalbumin (Sigma-Aldrich, A5503) (other, UniProt P01012 2-386, looked up)
chain: GSIGAASMEFCFDVFKELKVHHANENIFYCPIAIMSALAMVYLGAKDSTRTQINKVVRFDKLPGFGDSIEAQCGTSVNVHSSLRDILNQITKPNDVYSFSLASRLYAEERYPILPEYLQCVKELYRGGLEPINFQTAADQARELINSWVESQTNGIIRNVLQPSSVDSQTAMVLVNAIVFKGLWEKAFKDEDTQAMPFRVTEQESKPVQMMYQIGLFRVASMASEKMKILELPFASGTMSMLVLLPDEVSGLEQLESIINFEKLTEWTSSNVMEERKIKVYLPRMKMEEKYNLTSVLMAMGITDVFSSSANLSGISSAESLKISQAVHAAHAEINEAGREVVGSAEAGVDAASVSEEFRADHPFLFCIKHIATNAVLFFGRCVSP
notes: Negative control analyte in SPRi, injected at 10 µM; also called non-correlated protein; negative control sample
Turning to B2, the binding result in assay [2], in assay [3] and in assay [4] was “no binding (tested: 10 µM)” in each case.
